Experimental data reported in PMC5173032.

Biological target: human coagulation factor XII (purchased, not His-tagged) (human)

FXII activation relative to hPEPD, chromogenic assay (mutant 40 and 400 nM, FXII 0.97 nM, ZnCl2-containing PBS, RT): 50%
B1: 1M-265Rdel-hPEPD (domain or fragment)
chain: TIQNGDMCLFDMGGEYYCFASDITCSFPANGKFTADQKAVYEAVLRSSRAVMGAMKPGVWWPDMHRLADRIHLEELAHMGILSGSVDAMVQAHLGAVFMPHGLGHFLGIDVHDVGGYPEGVERIDEPGLRSLRTARHLQPGMVLTVEPGIYFIDHLLDEALADPARASFLNREVLQRFRGFGGVRIEEDVVVTDSGIELLTCVPRTVEEIEACMAGCDKAFTPFSGPK
